According to paper PMC6045382:

Biological target: thrombin (UniProt P00734;P00734 328-363;364-622)
Assay: 19F NMR

## GGTTGGTGTGGTTGG (structured_DNA, dT9 replaced by 5-[{3,5-bis(trifluoromethyl)phenyl}ethynyl]-2'-deoxyuridine) [T9 (19F-labeled TBA)]
  binding result: binds
